Experimental findings from paper PMC5207764 are described below.

This test deals with Vibrio cholerae major pilin TcpA with a His181Ala substitution, assembled in purified TCP^H181A pili (V. cholerae).

B1: Vibrio cholerae minor pilin TcpB (natural protein)
chain: MRKYQQGVGLLEAILASAVLGMALVAAGSYYKREAELMIKSSNAFDVIELSSQIQRYASLSKINNRTNPILKDNKAKEFKDADLKWLKLENCLTAGDVPTTGNNNDLQDQFIACDADYRKGDLSYFGSQFEFSTYVHPSNPEIQRQIKQVVSYFQYRGMERAFIGDAAGYVISEAKKKGFSAQDYRIVLIEPDRVGYFESNVISYEEFIENPSARENFLLKATKDRTLALAVSLAQTGEIAMQRDGSVAFLEDTELCWDTAAGSAKSCLSVRYDTVGNKTELDLKQIDVVSAKGLSFESDGKTKTPVVSTYETFQDGGRAKTINAIECPTGLNNRFAAVVSSFSTAGQNANFSSESAKDSQGTTQKDGSKGPHALLSGISLNWTLTNKVWDVTASIGIESGILPTSGIDSGSLLRNPKSLSFIAFQWCEN
As to B1, the molar ratio TcpA:TcpB in purified pili (TcpA per TcpB) was 7000.
